Reference: the RNAGym collection of RNA variant scans (doi:10.1073/pnas.2313332121)

B1: TPR t1 (parent)
chain: GACCAAUCUGCCCUCAGAGCUCGAGAACAUCUUCGGAUGCAGAGGAGGCAGGCUUCGGUGGCGCGAUAGCGCCAACGUCCUCAACCUCCAAUGCAUCCCACCACAUGAUGAUGCCUGAAGAGCCUUGGUUUUUUG

Variants of: B1
Experiment: polymerase ribozyme fitness, log enrichment relative to wild type (log ratio); higher = more active; in vitro selection for triplet polymerase activity
Procedure, shortened: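 The heterodimeric triplet polymerase ribozyme's subunits were each mutagenized into PCR-built libraries and transcribed. Every library was selected once, in triplicate, by annealing with a biotinylated primer, the partner subunit and triplets, incubating frozen at −7 °C, gel-excising extended constructs, capturing on streptavidin beads and running RT-PCR. Input and output libraries were Illumina-sequenced, with genotypes kept only at ≥10 input reads and ≥1 read per output. Fitness, from inverse-variance-weighted replicate averages, is the base-2 logarithm of genotype enrichment over wild-type enrichment.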

Row | Variant | polymerase ribozyme fitness (log ratio)
1 | C53G G61C C82U G120A | 0.391
2 | U9G C15U A90G C124A | 1.55
3 | G48U U59C | 0.407
4 | C64U A84C C123G G135C | 1.41
5 | C28G C56G C86U C124U | -1.07
6 | A50G G57A C72U U96C C114U | -4.36
7 | A27U G117U | -4.76
8 | C40A C73U U125G | -1.92
9 | A41G C73U A100U | -1.33
10 | G10C C13A C82U A83C | -0.888
11 | A74G C101A | -0.767
12 | C72G C73U | -0.887
13 | C56A C88A | -0.627
14 | U9A U38A U54A U96A U133G | -1.53
15 | C62G U78G | -2.88
16 | A26C C53U C86U U112A | -5.9
17 | U112A C124U | 1.1
18 | G44C U81A C89U G110U | -4.45
19 | C56U U67C | -4.67
20 | C102G | -5.93
21 | C62U A90C G135U | -2.45
22 | C82U G110U | -1.15
23 | G35A G60U A121U | -2.03
24 | U9G A43U G52U C72A C82A | -2.31

Row | Variant | polymerase ribozyme fitness (log ratio)
25 | G39A C56G | -1.24
26 | C11U C73G | 0.0999
27 | A5C U125G | -0.516
28 | G44U G71A | -2.39
29 | A37U G44A C101A A111G | -1.68
30 | C11G G57U G120A | 1.4
31 | C4A G17U C73U | -3.37
32 | A16U A41G G44A G117C | -4.44
33 | G47U C76U | -1.17
34 | A6U A29U A66C C115G G117U | -6.19
35 | C8G C114U | -0.759
36 | U106A G135U | -0.228
37 | C72U U96G U106A G113A | -2.89
38 | A2G G61A C102U U109A | -5.41
39 | C97U C101U C102A | -4.12
40 | C53U C62U U106C G117U | -4.61
41 | A6G A29U A37G C56U C62G U87G A105C G117C | -5.41
42 | C85G C115U | -1.86
43 | U59A A105G G113A U130C G135U | -5.1
44 | C79A G110C | -5.36
45 | G35U A119U A121C C124A | -4.47
46 | C3U C94G C114A U125A | -4.28
47 | C13A U78C | -1.78
48 | G60A C89U A95U | -1.24

Row | Variant | polymerase ribozyme fitness (log ratio)
49 | U21A C80U | -0.894
50 | C73U C79U U87A | -0.627
51 | A119U G128C | -2.46
52 | C28U A37U | -2.36
53 | A74G G110A A111G | 0.0395
54 | A74U A119G | 0.812
55 | G36U G45U G47U C101U C104A C123G U125C | -5.24
56 | G63C C82G A121C G128C | -1.24
57 | A29G G52U C70U U125A | -2.42
58 | A41G C49G U55A C73U A111C | -2.46
59 | A83C U126A | -1.84
60 | C22G G44C | -4.3
61 | C15A C94U G120C | -0.704
62 | A16G G60A | -1.26
63 | A46G C97U C114G | -4.73
64 | C22G G39U | -3.5
65 | U54G C64U | -3.4
66 | C97A U125A | -5.2
67 | A5U C12U G71U | -0.82
68 | G10U A50U G63A | -3.1
69 | C20G C34A A41G C53A G69C G120C | -6.31
70 | C11U G17A | -3
71 | C40A G63U C104U C115G | -3.72
72 | C31U C73G | -4.48

Row | Variant | polymerase ribozyme fitness (log ratio)
73 | C4A U14A | -5.35
74 | C20G G39C A90U C94U G113U C115U U116G | -1.36
75 | C15A A43G U96C U112C | -2.05
76 | C3G U14A C20A G42U G61U G117A U131G G135C | -3.96
77 | U7G G110C | -3.83
78 | A75U G117C | -3.99
79 | A18U A83U G120A | -2.42
80 | U21C G58C | -0.199
81 | C40U C94U G128U | -4.33
82 | C20U C70U G113U G120U | -3.51
83 | C49G C73G C89U G113A G122C | -4.49
84 | C11A C56A C89U | -1.96
85 | G35A U129A | -5.19
86 | A2G G120A U129C G135U | -1.81
87 | U9G G51U G63C | -3.1
88 | A90G U116A | -1.88
89 | A6U U106C G107A C114U | -5.44
90 | G10A G69U C79A A103C C115U G122A | -5.83
91 | G44C C73U C86U U96G U129C | -2.46
92 | C102A U109C | -6.22
93 | G42C G113C | -2.1
94 | A68G C94G G122A | -5.12
95 | C72U U87G | -1.61
96 | C3G C70U C115U G127U | -4.54

Row | Variant | polymerase ribozyme fitness (log ratio)
97 | G35C G52U A68C U92A C98G G110C G117U | -6.61
98 | U106A G128C | -2.95
99 | A46U C94G | -2.36
100 | C13G C15A A29G C64A C82A C104G U109G U131A | -5.2
101 | C11A A50G U81A | -2.23
102 | C11U G25U | -5.82
103 | C72U C101G C115U | -3.38
104 | G23C G93A | -6.59
105 | C56A C72A C76U U116G | -3.97
106 | A43U G71C | -2.56
107 | C13U G71U | -0.508
108 | G45U G128U | -2.42
109 | G63C U92A C98U | -5.26
110 | C40U G61C U129A | -3.93
111 | U9C C73U | 0.362
112 | G23A C70A | -4.2
113 | C20U G45A G117U G127C U130G | -4.33
114 | C8U A105C | -2.01
115 | G52C G63C C85U C104U | -3.03
116 | G63A A95U | -0.563
117 | C28G A50G G69U | -0.817
118 | G47C C70A | -5.04
119 | U55C G61U G113A | -1.64
120 | G19U U130G | -3.14

Row | Variant | polymerase ribozyme fitness (log ratio)
121 | A5G C12G C34U C72A A95C | -5.52
122 | G48U C53U | -2.55
123 | U9G G45A U96G | -0.306
124 | C11U A43C C76U A83U A90G | -3.5
125 | C49U C80U C114U G122U | -5.64
126 | G36C A50C U59A A118U G120A | -0.713
127 | A2C A5C C64U C114G C124A | -3.6
128 | A16U G47U G52U C115U G117C | -5.71
129 | G48A U81A C98U | -2.94
130 | A83G U129G | -1.68
131 | G71C U112G | -1.66
132 | G36A C62A C102A | -5.26
133 | G44C U116G C124G | -3.04
134 | G61U U116C U130G | -0.407
135 | A27U G47U C86U G110C | -6.45
136 | U9A C62A C86A C98U | -2.77
137 | C11G G19A A37U C85G | -3.64
138 | G36A C102U | -3.67
139 | U96G U125A | -0.674
140 | A2G G35U C124A | -4.09
141 | G51C G71A C82G C85A | -4.52
142 | G120A G135U | 0.435
143 | A16G C53G G58A A91C A119U | -4.1
144 | A66U C76G U78A U106A | -0.894

Row | Variant | polymerase ribozyme fitness (log ratio)
145 | G69C C115G | -3.08
146 | C40U U112C | 1.25
147 | A46U A74C U92C | -1.48
148 | C8G A27U G93U | -3.29
149 | G71C A111U | -4.31
150 | G65U C73U | -5.34
151 | U54G | -0.214
152 | C12U C62A U81G C115A | -2.91
153 | C28U A43U G48U G52C C86A C101A G117C C124U | -7.22
154 | U21G U38C G71C C99G C114U G120U A121U | -7.22
155 | U9G C88A | -0.00805
156 | A46C G60C | -0.75
157 | C31G A41C G58C C62U | -8.8
158 | G60A A105G G120U U133G G135U | -3.99
159 | G61A A74U G113U | -4.56
160 | A27C G60C C73G | -2.55
161 | A43U G51U G71A C79A U112G | -6.57
162 | G48A C72U C101G U133A | -2.79
163 | A6C C72U G120U U133A | -0.162
164 | A6C A29U G52U C53U G120A C123U | -2.96
165 | A2U U87G U96G | -3.12
166 | A46C C76G G122A | -1.33
167 | G71A C85G | -2.38
